Assay results as given in PMC5342555, “ATAD2 is an epigenetic reader of newly synthesized histone marks during DNA replication” (Oncotarget, 2016).
Changes are numbered by the printed parent chain. In names and notes the source's numbering stands.

B1: ATAD2^342-1390: recombinant FLAG-tagged ATAD2 residues 342 to 1390, purified from Sf9 cells (protein)
chain: SPYCKRMNRRRHAIHSSDSTSSSSSEDEQHFERRRKRSRNRAINRCLPLNFRKDELKGIYKDRMKIGASLADVDPMQLDSSVRFDSVGGLSNHIAALKEMVVFPLLYPEVFEKFKIQPPRGCLFYGPPGTGKTLVARALANECSQGDKRVAFFMRKGADCLSKWVGESERQLRLLFDQAYQMRPSIIFFDEIDGLAPVRSSRQDQIHSSIVSTLLALMDGLDSRGEIVVIGATNRLDSIDPALRRPGRFDREFLFSLPDKEARKEILKIHTRDWNPKPLDTFLEELAENCVGYCGADIKSICAEAALCALRRRYPQIYTTSEKLQLDLSSINISAKDFEVAMQKMIPASQRAVTSPGQALSTVVKPLLQNTVDKILEALQRVFPHAEFRTNKTLDSDISCPLLESDLAYSDDDVPSVYENGLSQKSSHKAKDNFNFLHLNRNACYQPMSFRPRILIVGEPGFGQGSHLAPAVIHALEKFTVYTLDIPVLFGVSTTSPEETCAQVIREAKRTAPSIVYVPHIHVWWEIVGPTLKATFTTLLQNIPSFAPVLLLATSDKPHSALPEEVQELFIRDYGEIFNVQLPDKEERTKFFEDLILKQAAKPPISKKKAVLQALEVLPVAPPPEPRSLTAEEVKRLEEQEEDTFRELRIFLRNVTHRLAIDKRFRVFTKPVDPDEVPDYVTVIKQPMDLSSVISKIDLHKYLTVKDYLRDIDLICSNALEYNPDRDPGDRLIRHRACALRDTAYAIIKEELDEDFEQLCEEIQESRKKRGCSSSKYAPSYYHVMPKQNSTLVGDKRSDPEQNEKLKTPSTPVACSTPAQLKRKIRKKSNWYLGTIKKRRKISQAKDDSQNAIDHKIESDTEETQDTSVDHNETGNTGESSVEENEKQQNASESKLELRNNSNTCNIENELEDSRKTTACTELRDKIACNGDASSSQIIHISDENEGKEMCVLRMTRARRSQVEQQQLITVEKALAILSQPTPSLVVDHERLKNLLKTVVKKSQNYNIFQLENLYAVISQCIYRHRKDHDKTSLIQKMEQEVENFSCSR
B2: WT ATAD2: recombinant FLAG-tagged full length ATAD2 purified from HEK 293 cells (protein)
chain: MVVLRSSLELHNHSAASATGSLDLSSDFLSLEHIGRRRLRSAGAAQKKPAATTAKAGDGSSVKEVETYHRTRALRSLRKDAQNSSDSSFEKNVEITEQLANGRHFTRQLARQQADKKKEEHREDKVIPVTRSLRARNIVQSTEHLHEDNGDVEVRRSCRIRSRYSGVNQSMLFDKLITNTAEAVLQKMDDMKKMRRQRMRELEDLGVFNETEESNLNMYTRGKQKDIQRTDEETTDNQEGSVESSEEGEDQEHEDDGEDEDDEDDDDDDDDDDDDDDEDDEDEEDGEEENQKRYYLRQRKATVYYQAPLEKPRHQRKPNIFYSGPASPARPRYRLSSAGPRSPYCKRMNRRRHAIHSSDSTSSSSSEDEQHFERRRKRSRNRAINRCLPLNFRKDELKGIYKDRMKIGASLADVDPMQLDSSVRFDSVGGLSNHIAALKEMVVFPLLYPEVFEKFKIQPPRGCLFYGPPGTGKTLVARALANECSQGDKRVAFFMRKGADCLSKWVGESERQLRLLFDQAYQMRPSIIFFDEIDGLAPVRSSRQDQIHSSIVSTLLALMDGLDSRGEIVVIGATNRLDSIDPALRRPGRFDREFLFSLPDKEARKEILKIHTRDWNPKPLDTFLEELAENCVGYCGADIKSICAEAALCALRRRYPQIYTTSEKLQLDLSSINISAKDFEVAMQKMIPASQRAVTSPGQALSTVVKPLLQNTVDKILEALQRVFPHAEFRTNKTLDSDISCPLLESDLAYSDDDVPSVYENGLSQKSSHKAKDNFNFLHLNRNACYQPMSFRPRILIVGEPGFGQGSHLAPAVIHALEKFTVYTLDIPVLFGVSTTSPEETCAQVIREAKRTAPSIVYVPHIHVWWEIVGPTLKATFTTLLQNIPSFAPVLLLATSDKPHSALPEEVQELFIRDYGEIFNVQLPDKEERTKFFEDLILKQAAKPPISKKKAVLQALEVLPVAPPPEPRSLTAEEVKRLEEQEEDTFRELRIFLRNVTHRLAIDKRFRVFTKPVDPDEVPDYVTVIKQPMDLSSVISKIDLHKYLTVKDYLRDIDLICSNALEYNPDRDPGDRLIRHRACALRDTAYAIIKEELDEDFEQLCEEIQESRKKRGCSSSKYAPSYYHVMPKQNSTLVGDKRSDPEQNEKLKTPSTPVACSTPAQLKRKIRKKSNWYLGTIKKRRKISQAKDDSQNAIDHKIESDTEETQDTSVDHNETGNTGESSVEENEKQQNASESKLELRNNSNTCNIENELEDSRKTTACTELRDKIACNGDASSSQIIHISDENEGKEMCVLRMTRARRSQVEQQQLITVEKALAILSQPTPSLVVDHERLKNLLKTVVKKSQNYNIFQLENLYAVISQCIYRHRKDHDKTSLIQKMEQEVENFSCSR
modifications: left off: tagGFP, end not stated, kept
notes: recombinant FLAG-tagged full length ATAD2 purified from HEK 293 cells
B3: ATPase mutant ATAD2: recombinant full length ATPase inactive mutant ATAD2 (K473T and E532Q) (protein)
chain: B2 chain with K473T, E532Q
modifications: left off: tagGFP, end not stated, kept

System: HDAC1 binding to H4K5,12diac
Test: In vitro competition with HDAC1 for immobilized H4K5,12diac peptides (direct binding pull down)
Conditions: for competition with HDAC1 for interaction with H4K5,12diac: full length ATAD2 0.22 μM pre-incubated 2 h, then 0.1 μM HDAC1 2 h, 1 μM peptide
Protocol: H4 peptides (1-25) conjugated with Biotin was immobilized on Streptavidin-coupled Dynabeads for 2 hours at 4 °C and incubated with nuclear extract from MCF7 cells. Nuclear extract was prepared by first isolating nucleus in hypotonic buffer (10 mM Tris-HCl pH 8.5, 10 mM NaCl, 0.5 mM TCEP and 0.1 % NP-40) and disrupting nuclear envelop in high salt buffer (20 mM Tris-HCl pH 8.5, 420 mM NaCl, 0.5 mM TCEP, 0.1 % Triton X-100, 25 % Glycerol) for 2 hours at 4 °C. Soluble nuclear extract was harvested by centrifugation at 20000 g for 20 min and diluted to 1:3 in buffer without NaCl in order to achieve physiological salt concentration, 140 mM. The nuclear extract was incubated with the immobilized peptides on the Streptavidin-Dynabeads overnight at 4 °C. Next day, the beads were washed three times with washing buffer (20 mM Tris-HCl pH 8.5, 140 mM NaCl, 0.5 mM TCEP, 0.1 % Triton X-100, 25 % Glycerol) and twice with high salt buffer. Bound proteins were recovered by boiling the beads in 1X sample buffer for 5 min. at 95 °C and analyzed by SDS-PAGE and Western Blotting. For direct binding experiments 1 μM of immobilized histone peptides on Streptavidin-Dynabeads were incubated with indicated amounts of ligands for 2 hours at 4 °C. After stringent washing as described above, bound proteins were analyzed in Western Blotting.

Molecule	competition with HDAC1 for binding to H4K5,12diac peptides (increasing amount of ATAD2^342-1390 2 h, then 0.1 μM recombinant HDAC1 2 h, 1 μM immobilized peptide)	competition with HDAC1 for interaction with H4K5,12diac
B1	outcompeted	–
B2	–	competes
B3	–	not
